The target in experiment [1] is T1, extracellular domain (ECD) of human CD79B isoform 1, CD9W7 (human).
T1 construct: It also carries C-terminal tag residues ending in a 6xHis tag; also called CD79b long isoform; hCD79B-long
T1 chain: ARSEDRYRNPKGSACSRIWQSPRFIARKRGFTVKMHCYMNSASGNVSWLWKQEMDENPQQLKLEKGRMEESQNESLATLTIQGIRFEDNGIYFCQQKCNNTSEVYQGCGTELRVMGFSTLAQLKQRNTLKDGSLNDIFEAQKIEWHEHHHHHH
The experiment in a line: SPR; hCD79B-long.

Experiment [2] concerns the target T2, extracellular domain (ECD) of human CD79B isoform 2, CD9W8 (human).
T2 construct: It also carries C-terminal tag residues ending in a 6xHis tag; also called CD79b short isoform; hCD79B-short
T2 chain: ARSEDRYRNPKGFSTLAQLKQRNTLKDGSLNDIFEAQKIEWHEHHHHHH
As to the kind of experiment: SPR; hCD79B-short.

Usually Kd stands for the free concentration of one partner at which half of the binding sites on the other are occupied at equilibrium, for simple one-to-one binding. A higher Kd goes with lower affinity.

B1: CD9B1256 (antibody, V domains shown)
VH: EVQLVESGPGLVEPSETLSLTCTVSGGSISSYYWSWIRQPAGKGLEWIGRIYSSGSTNYNPSLKSRVTMSVDTSENQFSLNLNSVTAADTAKYYCARGEYSGDLGGYGLDVWGQGTMVTVSS
VL: EIVMTQSPLSLSVTPGEPASISCRSSQSLLDSDDGNTYLDWYLQKPGQSPQLLIQTLSYRASGVPDRFSGRGSGTDFTLKISRVEAEDVGIYYCMQRMEFPLTFGGGTKVDIKR
notes: also called VR000056263
Regarding B1, the equilibrium dissociation constant (Kd) is 0.78 nM in experiment [1] and 2.21 nM in experiment [2].

(Values after US20240158499A1 (Janssen / Centocor, published 2024).)
